Data on 5 proteins can be found in patent US20120278951A1 (AGRESEARCH, published 2012).

Series [1] deals with the molecule itself. The series is described as follows: self-association (dimer) seen by SDS-PAGE/immunoblot; almost completely disrupted by SDS plus urea. Background: In western blotting, separated proteins are transferred to a membrane and probed.
Series [2] concerns the molecule itself. As to the kind of experiment: self-association seen by SDS and SDS-UREA PAGE/immunoblot; on artificial oil bodies with GSSG also trimeric, tetrameric and likely pentameric disulfide cross-linked oligomers.
Series [3] deals with the molecule itself. The series is described as follows: self-association / disulfide cross-linking seen by SDS and SDS-UREA PAGE/immunoblot of inclusion bodies and artificial oil bodies.
Series [4] concerns the molecule itself. The series is described as follows: disulfide cross-linked oligomers seen by non-reducing SDS-PAGE/immunoblot of artificial oil bodies.

B1: Oleosin disulfide 0,0 (sesame seed oleosin without engineered cysteines), E. coli expressed from pET29b (other)
chain: MKETAAAKFERQHMDSPDLGTLVPRGSMAEHYGQQQQTRAPHLQLQPRAQRVVKAATAVTAGGSLLVLSGLTLAGTVIALTIATPLLVIFSPVLVPAVITIFLLGAGFLASGGFGVAALSVLSWIYRYLTGKHPPGADQLESAKTKLASKAREMKDRAEQFSQQPVPWLISDPNSSSVDKLAAALEHHHHHHH
notes: Purified from E. coli inclusion bodies; also called Ole-0-0; Oleosin-0-0
Consider B1, for which the binding result in series [1] was “binds”.

B2: Oleosin disulfide 1,1 (sesame seed oleosin with one engineered cysteine in each hydrophilic arm), E. coli expressed from pET29b (other)
chain: MKETAAAKFERQHMDSPDLGTLVPRGSMACHYGQQQQTRAPHLQLQPRAQRVVKAATAVTAGGSLLVLSGLTLAGTVIALTIATPLLVIFSPVLVPAVITIFLLGAGFLASGGFGVAALSVLSWIYRYLTGKHPPGADQLESAKTKLASKAREMKDRAEQFSCQPVPWLEHHHHHH
notes: also called Ole-1-1; Oleosin-1-1
Regarding B2, the binding result in series [2] is “binds”.

B3: Oleosin disulfide 3,3 (sesame seed oleosin with three engineered cysteines in each hydrophilic arm), E. coli expressed from pET29b (other)
chain: MKETAAAKFERQHMDSPDLGTLVPRGSMACHYGQQQQTCAPHLQLQPRACRVVKAATAVTAGGSLLVLSGLTLAGTVIALTIATPLLVIFSPVLVPAVITIFLLGAGFLASGGFGVAALSVLSWIYRYLTGKHPPGADCLESAKTKLASCAREMKDRAEQFSCQPVPWLEHHHHHH
notes: also called Ole-3-3; Oleosin-3-3
Regarding B3, in series [3], the binding result is reported as “binds”.

B4: Oleosin disulfide 3,1 (sesame seed oleosin with three N-terminal and one C-terminal engineered cysteines), E. coli expressed from pET29b (other)
chain: MKETAAAKFERQHMDSPDLGTLVPRGSMACHYGQQQQTCAPHLQLQPRACRVVKAATAVTAGGSLLVLSGLTLAGTVIALTIATPLLVIFSPVLVPAVITIFLLGAGFLASGGFGVAALSVLSWIYRYLTGKHPPGADQLESAKTKLASKAREMKDRAEQFSCQPVPWLEHHHHHH
notes: also called Ole-3-1; Oleosin-3-1
For B4, the binding result in series [4] was “binds”.

B5: Oleosin disulfide 1,3 (sesame seed oleosin with one N-terminal and three C-terminal engineered cysteines), E. coli expressed from pET29b (other)
chain: MKETAAAKFERQHMDSPDLGTLVPRGSMACHYGQQQQTRAPHLQLQPRAQRVVKAATAVTAGGSLLVLSGLTLAGTVIALTIATPLLVIFSPVLVPAVITIFLLGAGFLASGGFGVAALSVLSWIYRYLTGKHPPGADCLESAKTKLASCAREMKDRAEQFSCQPVPWLEHHHHHH
notes: also called Ole-1-3; Oleosin-1-3
With B5, the binding result in series [4] is “binds”.
